Consider one protein from patent US7361741.

The target of this data set is enzyme recognising antibody fragments.

B1: Human Gastric Lipase (protein)
chain: LFGKLHPGSPEVTMNISQMITYWGYPNEEYEVVTEDGYILEVNRIPYGKKNSGNTGQRPVVFLQHGLLASATNWISNLPNNSLAFILADAGYDVWLGNSRGNTWARRNLYYSPDSVEFWAFSFDEMAKYDLPATIDFIVKKTGQKQLHYVGHSQGTTIGFIAFSTNPSLAKRIKTFYALAPVATVKYTKSLINKLRFVPQSLFKFIFGDKIFYPHNFFDQFLATEVCSREMLNLLCSNALFIICGFDSKNFNTSRLDVYLSHNPAGTSVQNMFHWTQAVKSGKFQAYDWGSPVQNRMHYDQSQPPYYNVTAMNVPIAVWNGGKDLLADPQDVGLLLPKLPNLIYHKEIPFYNHLDFIWAMDAPQEVYNDIVSMISEDKK
B1: the “enzyme activity assay (DGGR substrate)” value is recorded as “Approximately 30 to 60% of the enzyme recognising antibody fragments showed to inhibit the enzyme”.
